Measurements taken from article PMC11479839.
Where two headings read alike, the source gives them in different places.

B1: 1Ebox (dsDNA)
DNA 1: AGCTTAACTGACCACGTGGTCAACTA
DNA 2: TAGTTGACCACGTGGTCAGTTAAGCT
B2: 1 NC Ebox CATATG (table: NC Ebox-TC; text: NCE-TA) (dsDNA)
DNA 1: AGCTTAACTGACCATATGGTCAACTA
DNA 2: TAGTTGACCATATGGTCAGTTAAGCT
B3: 1 NC Ebox CATCTG (table: NC Ebox-TA; text: NCE-TC) (dsDNA)
DNA 1: AGCTTAACTGACCATCTGGTCAACTA
DNA 2: TAGTTGACCAGATGGTCAGTTAAGCT

Key:
N-myc;MAX [1] = biological target: T1, N-myc;MAX (human;human, UniProt P04198;P61244 1-464;1-160, |); assay: fluorescence anisotropy
N-myc;MAX [2] = biological target: T1, N-myc;MAX; assay: fluorescence anisotropy; remark: listed apart in the source

T1 sequence (P04198 whole entry, chain 1 of 2): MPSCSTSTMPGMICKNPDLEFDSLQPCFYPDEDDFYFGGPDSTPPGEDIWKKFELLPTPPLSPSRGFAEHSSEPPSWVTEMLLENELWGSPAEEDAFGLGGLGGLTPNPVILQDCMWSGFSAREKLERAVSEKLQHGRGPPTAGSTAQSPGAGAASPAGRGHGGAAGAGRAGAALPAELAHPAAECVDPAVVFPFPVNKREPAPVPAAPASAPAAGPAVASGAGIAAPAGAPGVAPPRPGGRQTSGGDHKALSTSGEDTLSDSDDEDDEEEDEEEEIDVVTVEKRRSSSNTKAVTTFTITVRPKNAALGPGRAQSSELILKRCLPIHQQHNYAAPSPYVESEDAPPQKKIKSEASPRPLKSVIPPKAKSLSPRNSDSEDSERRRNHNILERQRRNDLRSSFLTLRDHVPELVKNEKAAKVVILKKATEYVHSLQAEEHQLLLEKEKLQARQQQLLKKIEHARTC
T1 sequence (P61244 whole entry, chain 2 of 2): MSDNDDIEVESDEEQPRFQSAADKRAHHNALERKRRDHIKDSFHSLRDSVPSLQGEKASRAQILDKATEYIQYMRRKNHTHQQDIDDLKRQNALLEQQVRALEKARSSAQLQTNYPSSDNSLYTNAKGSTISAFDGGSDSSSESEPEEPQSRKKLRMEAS

Binder | Kd (N-myc;MAX [1]) | Kd (N-myc;MAX [2])
B1 | ~150 nM | –
B2 | – | ~735 nM
B3 | – | ~655 nM
